Measurements published in article PMC9482650, “Quantitative fragmentomics allow affinity mapping of interactomes” (Nature Communications, 2022).

T1: ARHGEF11, O15085
T1 sequence (O15085 42-136, limits assumed, looked up): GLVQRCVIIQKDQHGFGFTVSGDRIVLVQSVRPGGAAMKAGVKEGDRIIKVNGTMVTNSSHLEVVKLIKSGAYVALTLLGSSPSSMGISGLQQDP

T2: GRIP1_5, Q9Y3R0
T2 sequence (Q9Y3R0 568-668, limits assumed, looked up): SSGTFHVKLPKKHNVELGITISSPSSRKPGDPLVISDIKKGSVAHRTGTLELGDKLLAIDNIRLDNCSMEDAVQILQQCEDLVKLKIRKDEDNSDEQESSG

T3: GRIP1_7, Q9Y3R0
T3 sequence (Q9Y3R0 999-1096, limits assumed, looked up): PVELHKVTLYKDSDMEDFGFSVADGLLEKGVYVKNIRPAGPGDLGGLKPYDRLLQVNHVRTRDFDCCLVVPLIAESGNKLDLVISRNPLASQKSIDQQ

T4: LIN7A, O14910
T4 sequence (O14910 103-200, limits assumed, looked up): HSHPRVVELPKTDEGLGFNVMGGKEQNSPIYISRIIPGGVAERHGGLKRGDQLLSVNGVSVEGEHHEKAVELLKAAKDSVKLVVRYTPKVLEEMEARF

T5: MPP6, Q9NZW5
T5 sequence (Q9NZW5 125-219, limits assumed, looked up): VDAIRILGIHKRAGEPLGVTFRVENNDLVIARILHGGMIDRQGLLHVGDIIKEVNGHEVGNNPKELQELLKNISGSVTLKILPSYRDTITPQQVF

T6: MPP7, Q5T2T1
T6 sequence (Q5T2T1 134-230, limits assumed, looked up): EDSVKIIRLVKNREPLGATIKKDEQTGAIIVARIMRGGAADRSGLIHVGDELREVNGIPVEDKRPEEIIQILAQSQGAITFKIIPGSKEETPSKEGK

T7: PCLO, Q9Y6V0
T7 sequence (Q9Y6V0 4491-4600, limits assumed, looked up): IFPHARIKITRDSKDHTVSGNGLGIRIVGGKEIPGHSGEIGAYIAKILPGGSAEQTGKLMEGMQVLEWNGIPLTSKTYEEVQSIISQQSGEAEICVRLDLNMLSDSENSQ

T8: PDZRN3_1, Q9UPQ7
T8 sequence (Q9UPQ7 244-349, limits assumed, looked up): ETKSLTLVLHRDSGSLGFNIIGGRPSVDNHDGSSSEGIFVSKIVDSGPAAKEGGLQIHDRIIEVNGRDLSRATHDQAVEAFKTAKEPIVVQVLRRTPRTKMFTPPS

T9: PTPN13_1, Q12923
T9 sequence (Q12923 1088-1188, limits assumed, looked up): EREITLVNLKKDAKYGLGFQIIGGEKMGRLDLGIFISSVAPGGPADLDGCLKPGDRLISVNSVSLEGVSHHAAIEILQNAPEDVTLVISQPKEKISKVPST

T10: SYNJ2BP, P57105
T10 sequence (P57105 8-110, limits assumed, looked up): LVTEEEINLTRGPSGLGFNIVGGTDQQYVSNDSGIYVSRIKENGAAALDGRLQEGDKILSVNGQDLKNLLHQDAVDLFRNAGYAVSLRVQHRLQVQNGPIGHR

B1: TYRP1, P17643 (peptide)
chain: KLQNPNQSVV
B2: CTNND2, Q9UQB3 (peptide)
chain: HYPASPDSWV

These binders were tested against AHNAK1, Q09666 (assay: holdup assay). Conditions: plain residues with an end cap or a label only (N-terminal biotin on a linker: ado-ado).
Parameters: key: below the threshold = too weak to quantify, mostly under pKd 3.1 to 4

AHNAK1, Q09666, sequence (Q09666 4-100): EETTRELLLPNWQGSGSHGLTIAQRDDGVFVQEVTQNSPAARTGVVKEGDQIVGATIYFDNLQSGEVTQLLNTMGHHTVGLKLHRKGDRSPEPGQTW

pKd | Binder
below the threshold | B1
below the threshold | B2

Each binder was assayed against T1, ARHGEF11, O15085 (assay: holdup assay). Conditions: plain residues with an end cap or a label only (N-terminal biotin on a linker: ado-ado).
Parameters: key: below the threshold = too weak to quantify, mostly under pKd 3.1 to 4

pKd | Binder
3.9 | B1
3.68 | B2

What follows are binders tested against DLG4_2, P78352 (assay: holdup assay). Conditions: plain residues with an end cap or a label only (N-terminal biotin on a linker: ado-ado).
Parameters: key: below the threshold = too weak to quantify, mostly under pKd 3.1 to 4

DLG4_2, P78352, sequence (P78352 155-259): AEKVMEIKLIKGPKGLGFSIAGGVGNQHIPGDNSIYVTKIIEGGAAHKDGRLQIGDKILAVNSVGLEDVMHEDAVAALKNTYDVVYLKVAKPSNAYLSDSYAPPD

pKd | Binder
4.11 | B1
4.72 | B2

These binders were tested against FRMPD2_1, Q68DX3 (assay: holdup assay). Conditions: plain residues with an end cap or a label only (N-terminal biotin on a linker: ado-ado).
Parameters: key: below the threshold = too weak to quantify, mostly under pKd 3.1 to 4

FRMPD2_1, Q68DX3, sequence (Q68DX3 770-861): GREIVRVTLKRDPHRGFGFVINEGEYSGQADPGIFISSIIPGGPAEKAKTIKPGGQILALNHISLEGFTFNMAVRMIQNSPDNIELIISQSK

pKd | Binder
below the threshold | B1
below the threshold | B2

Each binder was assayed against GIPC2, Q8TF65 (assay: holdup assay). Conditions: plain residues with an end cap or a label only (N-terminal biotin on a linker: ado-ado).
Parameters: key: below the threshold = too weak to quantify, mostly under pKd 3.1 to 4

GIPC2, Q8TF65, sequence (Q8TF65 112-203): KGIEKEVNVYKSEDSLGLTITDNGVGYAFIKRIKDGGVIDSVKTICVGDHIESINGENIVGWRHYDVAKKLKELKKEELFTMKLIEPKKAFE

pKd | Binder
3.67 | B1
3.61 | B2

What follows are binders tested against GRASP, Q7Z6J2 (assay: holdup assay). Conditions: plain residues with an end cap or a label only (N-terminal biotin on a linker: ado-ado).
Parameters: key: below the threshold = too weak to quantify, mostly under pKd 3.1 to 4

GRASP, Q7Z6J2, sequence (Q7Z6J2 96-193): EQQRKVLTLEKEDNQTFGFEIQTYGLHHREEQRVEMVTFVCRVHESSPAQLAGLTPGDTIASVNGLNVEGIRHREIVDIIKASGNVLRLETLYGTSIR

pKd | Binder
4 | B1
3.76 | B2

Each binder was assayed against GRID2IP_1, A4D2P6 (assay: holdup assay). Conditions: plain residues with an end cap or a label only (N-terminal biotin on a linker: ado-ado).
Parameters: key: below the threshold = too weak to quantify, mostly under pKd 3.1 to 4

GRID2IP_1, A4D2P6, sequence (A4D2P6 1-87): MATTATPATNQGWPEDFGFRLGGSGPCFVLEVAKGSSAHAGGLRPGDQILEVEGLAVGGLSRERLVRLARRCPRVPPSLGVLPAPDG

pKd | Binder
below the threshold | B1
below the threshold | B2

What follows are binders tested against T2, GRIP1_5, Q9Y3R0 (assay: holdup assay). Conditions: plain residues with an end cap or a label only (N-terminal biotin on a linker: ado-ado).
Parameters: key: below the threshold = too weak to quantify, mostly under pKd 3.1 to 4

pKd | Binder
below the threshold | B1
below the threshold | B2

These binders were tested against T3, GRIP1_7, Q9Y3R0 (assay: holdup assay). Conditions: plain residues with an end cap or a label only (N-terminal biotin on a linker: ado-ado).
Parameters: key: below the threshold = too weak to quantify, mostly under pKd 3.1 to 4

pKd | Binder
below the threshold | B1
3.75 | B2

The binders below were run against GRIP2_3, Q9C0E4 (assay: holdup assay). Conditions: plain residues with an end cap or a label only (N-terminal biotin on a linker: ado-ado).
Parameters: key: below the threshold = too weak to quantify, mostly under pKd 3.1 to 4

GRIP2_3, Q9C0E4, sequence (Q9C0E4 238-339): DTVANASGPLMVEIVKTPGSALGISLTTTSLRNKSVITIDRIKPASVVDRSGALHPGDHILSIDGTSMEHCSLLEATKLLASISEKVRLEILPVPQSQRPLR

pKd | Binder
below the threshold | B1
below the threshold | B2

What follows are binders tested against GRIP2_6, Q9C0E4 (assay: holdup assay). Conditions: plain residues with an end cap or a label only (N-terminal biotin on a linker: ado-ado).
Parameters: key: below the threshold = too weak to quantify, mostly under pKd 3.1 to 4

GRIP2_6, Q9C0E4, sequence (Q9C0E4 648-740): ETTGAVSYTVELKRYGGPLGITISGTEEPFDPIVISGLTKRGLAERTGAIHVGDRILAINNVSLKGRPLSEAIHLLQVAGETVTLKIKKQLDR

pKd | Binder
below the threshold | B1
below the threshold | B2

The binders below were run against HTRA1, Q92743 (assay: holdup assay). Conditions: plain residues with an end cap or a label only (N-terminal biotin on a linker: ado-ado).
Parameters: key: below the threshold = too weak to quantify, mostly under pKd 3.1 to 4

HTRA1, Q92743, sequence (Q92743 360-477): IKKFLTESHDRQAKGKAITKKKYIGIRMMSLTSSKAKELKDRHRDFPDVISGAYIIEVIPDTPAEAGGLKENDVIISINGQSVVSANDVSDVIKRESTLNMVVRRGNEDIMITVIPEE

pKd | Binder
4.11 | B1
4.71 | B2

What follows are binders tested against Inadl_4, Q8NI35 (assay: holdup assay). Conditions: plain residues with an end cap or a label only (N-terminal biotin on a linker: ado-ado).
Parameters: key: below the threshold = too weak to quantify, mostly under pKd 3.1 to 4

Inadl_4, Q8NI35, sequence (Q8NI35 547-651): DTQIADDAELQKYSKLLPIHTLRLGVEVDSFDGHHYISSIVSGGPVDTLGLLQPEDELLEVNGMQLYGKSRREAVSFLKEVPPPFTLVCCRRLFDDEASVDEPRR

pKd | Binder
below the threshold | B1
below the threshold | B2

What follows are binders tested against T4, LIN7A, O14910 (assay: holdup assay). Conditions: plain residues with an end cap or a label only (N-terminal biotin on a linker: ado-ado).
Parameters: key: below the threshold = too weak to quantify, mostly under pKd 3.1 to 4

pKd | Binder
below the threshold | B1
below the threshold | B2

Each binder was assayed against MAGI1_1, Q96QZ7 (assay: holdup assay). Conditions: plain residues with an end cap or a label only (N-terminal biotin on a linker: ado-ado).
Parameters: key: below the threshold = too weak to quantify, mostly under pKd 3.1 to 4

MAGI1_1, Q96QZ7, sequence (Q96QZ7 1-106): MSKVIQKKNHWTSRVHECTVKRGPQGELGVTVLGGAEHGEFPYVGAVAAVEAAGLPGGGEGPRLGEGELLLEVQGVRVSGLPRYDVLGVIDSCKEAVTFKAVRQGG

pKd | Binder
below the threshold | B1
below the threshold | B2

What follows are binders tested against MAGI1_2, Q96QZ7 (assay: holdup assay). Conditions: plain residues with an end cap or a label only (N-terminal biotin on a linker: ado-ado).
Parameters: key: below the threshold = too weak to quantify, mostly under pKd 3.1 to 4

MAGI1_2, Q96QZ7, sequence (Q96QZ7 456-580): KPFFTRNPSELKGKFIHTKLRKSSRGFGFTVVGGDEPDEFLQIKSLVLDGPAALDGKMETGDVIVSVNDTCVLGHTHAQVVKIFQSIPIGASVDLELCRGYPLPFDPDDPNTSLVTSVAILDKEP

pKd | Binder
below the threshold | B1
below the threshold | B2

These binders were tested against MAGI2_3, Q86UL8 (assay: holdup assay). Conditions: plain residues with an end cap or a label only (N-terminal biotin on a linker: ado-ado).
Parameters: key: below the threshold = too weak to quantify, mostly under pKd 3.1 to 4

MAGI2_3, Q86UL8, sequence (Q86UL8 600-682): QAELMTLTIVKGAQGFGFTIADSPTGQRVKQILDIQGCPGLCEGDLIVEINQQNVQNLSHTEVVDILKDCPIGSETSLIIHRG

pKd | Binder
below the threshold | B1
3.58 | B2

These binders were tested against MAGI2_5, Q86UL8 (assay: holdup assay). Conditions: plain residues with an end cap or a label only (N-terminal biotin on a linker: ado-ado).
Parameters: key: below the threshold = too weak to quantify, mostly under pKd 3.1 to 4

MAGI2_5, Q86UL8, sequence (Q86UL8 915-1017): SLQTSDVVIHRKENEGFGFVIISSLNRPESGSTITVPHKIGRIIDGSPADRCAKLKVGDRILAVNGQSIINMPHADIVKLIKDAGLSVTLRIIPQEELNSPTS

pKd | Binder
3.78 | B1
below the threshold | B2

These binders were tested against MAST2, Q6P0Q8 (assay: holdup assay). Conditions: plain residues with an end cap or a label only (N-terminal biotin on a linker: ado-ado).
Parameters: key: below the threshold = too weak to quantify, mostly under pKd 3.1 to 4

MAST2, Q6P0Q8, sequence (Q6P0Q8 1099-1202): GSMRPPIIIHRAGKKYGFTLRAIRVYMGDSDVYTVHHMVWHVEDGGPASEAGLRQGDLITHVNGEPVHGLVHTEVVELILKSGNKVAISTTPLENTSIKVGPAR

pKd | Binder
4.7 | B1
4.17 | B2

Each binder was assayed against T5, MPP6, Q9NZW5 (assay: holdup assay). Conditions: plain residues with an end cap or a label only (N-terminal biotin on a linker: ado-ado).
Parameters: key: below the threshold = too weak to quantify, mostly under pKd 3.1 to 4

pKd | Binder
below the threshold | B1
below the threshold | B2

What follows are binders tested against T6, MPP7, Q5T2T1 (assay: holdup assay). Conditions: plain residues with an end cap or a label only (N-terminal biotin on a linker: ado-ado).
Parameters: key: below the threshold = too weak to quantify, mostly under pKd 3.1 to 4

pKd | Binder
below the threshold | B1
below the threshold | B2

The binders below were run against NHERF4_2, Q86UT5 (assay: holdup assay). Conditions: plain residues with an end cap or a label only (N-terminal biotin on a linker: ado-ado).
Parameters: key: below the threshold = too weak to quantify, mostly under pKd 3.1 to 4

NHERF4_2, Q86UT5, sequence (Q86UT5 220-308): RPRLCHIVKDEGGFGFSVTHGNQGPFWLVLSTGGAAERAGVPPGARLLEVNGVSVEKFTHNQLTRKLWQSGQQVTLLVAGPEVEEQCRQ

pKd | Binder
below the threshold | B1
3.55 | B2

What follows are binders tested against T7, PCLO, Q9Y6V0 (assay: holdup assay). Conditions: plain residues with an end cap or a label only (N-terminal biotin on a linker: ado-ado).
Parameters: key: below the threshold = too weak to quantify, mostly under pKd 3.1 to 4

pKd | Binder
below the threshold | B1
below the threshold | B2

What follows are binders tested against T8, PDZRN3_1, Q9UPQ7 (assay: holdup assay). Conditions: plain residues with an end cap or a label only (N-terminal biotin on a linker: ado-ado).
Parameters: key: below the threshold = too weak to quantify, mostly under pKd 3.1 to 4

pKd | Binder
below the threshold | B1
3.83 | B2

What follows are binders tested against T9, PTPN13_1, Q12923 (assay: holdup assay). Conditions: plain residues with an end cap or a label only (N-terminal biotin on a linker: ado-ado).
Parameters: key: below the threshold = too weak to quantify, mostly under pKd 3.1 to 4

pKd | Binder
below the threshold | B1
below the threshold | B2

What follows are binders tested against SCRIB_2, Q14160 (assay: holdup assay). Conditions: plain residues with an end cap or a label only (N-terminal biotin on a linker: ado-ado).
Parameters: key: below the threshold = too weak to quantify, mostly under pKd 3.1 to 4

SCRIB_2, Q14160, sequence (Q14160 857-960): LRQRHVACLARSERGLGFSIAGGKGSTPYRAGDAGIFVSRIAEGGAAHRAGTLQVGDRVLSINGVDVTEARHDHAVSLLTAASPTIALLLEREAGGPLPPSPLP

pKd | Binder
below the threshold | B1
4.81 | B2

The binders below were run against T10, SYNJ2BP, P57105 (assay: holdup assay). Conditions: plain residues with an end cap or a label only (N-terminal biotin on a linker: ado-ado).
Parameters: key: below the threshold = too weak to quantify, mostly under pKd 3.1 to 4

pKd | Binder
3.91 | B1
5.07 | B2
